Data on five molecules can be found in paper PMC11193018 (The Journal of Biological Chemistry, 2024).

One may read the stoichiometry N as the number of molecules, sites or subunits per partner or assembly.

Data set [1] concerns the target Methanocaldococcus jannaschii GINS, wild type, non-His-tagged (Methanocaldococcus jannaschii). Description: SEC. A general note: Size exclusion chromatography separates by hydrodynamic size, large species first.
Data set [2] concerns the target MjGINS domain A (residues 21-115), as crystallized (Methanocaldococcus jannaschii). In words: crystal structure.
The target of data set [3] is MjGINS-M, dimeric mutant of MjGINS (K58A, K74A, K78A, I101A, I105A) (Methanocaldococcus jannaschii). Description: SEC.
The data set “crystal structure” deals with the molecule itself. Description: crystal structure.
The data set “SEC” concerns the molecule itself. Description: SEC.

“Methanocaldococcus jannaschii GINS, wild type, non-His-tagged (natural protein)”: in data set [1], the stoichiometry N is 4.

“MjGINS domain A (residues 21-115), as crystallized (domain or fragment)” showed a stoichiometry N in data set [2] of 4.

“MjGINS-M, dimeric mutant of MjGINS (K58A, K74A, K78A, I101A, I105A) (natural protein)” had a stoichiometry N in data set [3] of 2.

B1: Methanocaldococcus jannaschii RecJ2, tag-free, for crystallization (enzyme)
chain: MMEKLKEIEKVTKAIKEKILNHYGYIRVITHHDTDGLSSGGILAKMLMRTNKLFHLTVVEHLSKEVIEKLAKENEVNKPLFIFADMGSGQIEEIIKHNFNAIILDHHPPVIKDSFINENIIQLNPHIFGVDGSREITASGVCYLVAREFGYYDLSVLAIVGIIGDMQYNPLLGLNKFIVNEAREYRYVKIMNDIVYNIYDVEIYKAIAYCTKPYIPDLASEGKAFKFLKDIGIDPNKKQLDDTDKKKLLSAIIFKYPKIENLLIDRYLIEHKVRDAFLLSEMLNAVGRNGLFAVGIGICLEDDECIKIGNQILWEYKKNLINELKSVKLKKLNNIYYFEGKKGMIGIIASILVDDKPVIGYHIEGDIAKFSARGNRDLVNRGLNLSVAMAVAKEFGGNGGGHDVASGAVVSKDKVQEFLKRVDEIIGEQLRR
On to B1, for which, in the data set “crystal structure”, the “stoichiometry N” value is 2.

B2: Methanocaldococcus jannaschii RecJ2, wild type, His-tagged (enzyme)
chain: MMEKLKEIEKVTKAIKEKILNHYGYIRVITHHDTDGLSSGGILAKMLMRTNKLFHLTVVEHLSKEVIEKLAKENEVNKPLFIFADMGSGQIEEIIKHNFNAIILDHHPPVIKDSFINENIIQLNPHIFGVDGSREITASGVCYLVAREFGYYDLSVLAIVGIIGDMQYNPLLGLNKFIVNEAREYRYVKIMNDIVYNIYDVEIYKAIAYCTKPYIPDLASEGKAFKFLKDIGIDPNKKQLDDTDKKKLLSAIIFKYPKIENLLIDRYLIEHKVRDAFLLSEMLNAVGRNGLFAVGIGICLEDDECIKIGNQILWEYKKNLINELKSVKLKKLNNIYYFEGKKGMIGIIASILVDDKPVIGYHIEGDIAKFSARGNRDLVNRGLNLSVAMAVAKEFGGNGGGHDVASGAVVSKDKVQEFLKRVDEIIGEQLRR
B2: the “stoichiometry N” value in the data set “SEC” turned out to be 2.
